# Biological target: T1, ncbp1_human NCBP1 (UniProt Q09161)
# T1 sequence: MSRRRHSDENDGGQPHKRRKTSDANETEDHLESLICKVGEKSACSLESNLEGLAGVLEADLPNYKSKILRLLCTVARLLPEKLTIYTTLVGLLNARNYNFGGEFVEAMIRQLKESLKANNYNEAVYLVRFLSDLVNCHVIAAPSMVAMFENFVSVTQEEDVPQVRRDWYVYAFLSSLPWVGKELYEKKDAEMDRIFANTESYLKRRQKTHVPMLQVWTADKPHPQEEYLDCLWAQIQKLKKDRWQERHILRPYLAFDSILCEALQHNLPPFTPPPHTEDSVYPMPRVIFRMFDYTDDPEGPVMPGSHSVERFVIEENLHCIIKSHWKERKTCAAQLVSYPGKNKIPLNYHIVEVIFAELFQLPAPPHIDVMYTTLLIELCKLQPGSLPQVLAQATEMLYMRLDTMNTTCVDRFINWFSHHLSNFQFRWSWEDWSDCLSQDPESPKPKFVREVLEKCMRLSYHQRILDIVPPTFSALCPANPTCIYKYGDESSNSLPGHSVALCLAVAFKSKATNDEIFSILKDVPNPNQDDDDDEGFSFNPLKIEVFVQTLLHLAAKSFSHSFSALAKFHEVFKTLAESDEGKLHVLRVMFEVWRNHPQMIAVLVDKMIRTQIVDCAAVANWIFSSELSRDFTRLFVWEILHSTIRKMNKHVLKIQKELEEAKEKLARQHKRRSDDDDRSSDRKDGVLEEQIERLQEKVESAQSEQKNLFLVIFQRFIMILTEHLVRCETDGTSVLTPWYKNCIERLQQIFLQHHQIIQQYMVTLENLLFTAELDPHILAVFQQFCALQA
row,effect of a mutation on the interaction,Substance
1,decreasing interaction strength,THO complex subunit 4 (Homo sapiens) (from UniProt Q86V81) Q165E
2,decreasing interaction strength,THO complex subunit 4 (Homo sapiens) (from UniProt Q86V81) V169A
3,decreasing interaction strength,THO complex subunit 4 (Homo sapiens) (from UniProt Q86V81) P170A
4,decreasing interaction strength,THO complex subunit 4 (Homo sapiens) (from UniProt Q86V81) F115S

# From IntAct's records for PubMed 37020021
